Measured values taken from patent publication US20230416365A1 (Hoffmann-La Roche, published 2023).

Target: T1, Hu N(A2-B2)A-avi-His (human, biotinylated at the avi tag (Example 2.2))
T1 construct: also called hu N(A2-B2)A-avi-His B; CEACAM5-based antigen
T1 chain: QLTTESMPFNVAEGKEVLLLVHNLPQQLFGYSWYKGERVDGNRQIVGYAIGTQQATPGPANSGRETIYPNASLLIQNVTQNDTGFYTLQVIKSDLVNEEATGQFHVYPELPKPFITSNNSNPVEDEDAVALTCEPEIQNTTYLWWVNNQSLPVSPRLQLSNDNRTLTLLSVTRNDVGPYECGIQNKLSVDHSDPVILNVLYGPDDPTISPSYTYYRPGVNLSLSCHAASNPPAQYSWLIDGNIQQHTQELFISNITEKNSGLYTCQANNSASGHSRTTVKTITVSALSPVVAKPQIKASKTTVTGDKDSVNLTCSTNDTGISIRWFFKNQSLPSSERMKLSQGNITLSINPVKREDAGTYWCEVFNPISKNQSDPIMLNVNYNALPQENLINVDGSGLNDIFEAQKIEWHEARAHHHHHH
Assay: SPR, ProteOn XPR36, antigen on NLC chip, bispecific as analyte
Protocol: Immobilization of recombinant antigens (ligand): Antigens were diluted with PBST (10 mM phosphate, 150 mM sodium chloride pH 7.4, 0.005% Tween 20) to 10 μg/ml, then injected at 30 μl/minute at varying contact times, to achieve immobilization levels of about 400, 800, and 1600 response units (RU) in vertical orientation. […] Buffer (PBST) was injected along the sixth channel to provide an “in-line” blank for referencing. Association rate constants (kon) and dissociation rate constants (koff) were calculated using a simple one-to-one Langmuir binding model in ProteOn Manager v3.1 software by simultaneously fitting the association and dissociation sensorgrams. The equilibrium dissociation constant (KD) was calculated as the ratio koff/kon.

B1: CEA-CD28(SA) 1+1 format (Molecule M) (bispecific antibody, human IgG1, kappa, L234A L235A)
heavy 1: not shown
light 1: not shown
heavy 2: QAVLTQPASLSASPGASASLTCTLRRGINVGAYSIYWYQQKPGSPPQYLLRYKSDSDKQQGSGVSSRFSASKDASANAGILLISGLQSEDEADYYCMIWHSGASAVFGGGTKLTVLSSASTKGPSVFPLAPSSKSTSGGTAALGCLVKDYFPEPVTVSWNSGALTSGVHTFPAVLQSSGLYSLSSVVTVPSSSLGTQTYICNVNHKPSNTKVDKKVEPKSCDKTHTCPPCPAPEAAGGPSVFLFPPKPKDTLMISRTPEVTCVVVDVSHEDPEVKFNWYVDGVEVHNAKTKPREEQYNSTYRVVSVLTVLHQDWLNGKEYKCKVSNKALGAPIEKTISKAKGQPREPQVCTLPPSRDELTKNQVSLSCAVKGFYPSDIAVEWESNGQPENNYKTTPPVLDSDGSFFLVSKLTVDKSRWQQGNVFSCSVMHEALHNHYTQKSLSLSP
light 2: EVQLVESGGGLVQPGRSLRLSCAASGFTVSSYWMHWVRQAPGKGLEWVGFIRNKANGGTTEYAASVKGRFTISRDDSKNTLYLQMNSLRAEDTAVYYCARDRGLRFYFDYWGQGTTVTVSSASVAAPSVFIFPPSDEQLKSGTASVVCLLNNFYPREAKVQWKVDNALQSGNSQESVTEQDSKDSTYSLSSTLTLSKADYEKHKVYACEVTHQGLSSPVTKSFNRGEC
notes: huIgG1 PG-LALA CrossFab, knob-into-hole; also called P1AE3127; anti-CEA (Medi-565) / anti-CD28 (TGN1412)
Kd: 0.29 nM
